The labels stand for the following.
T1: human PAC1 receptor (human, UniProt P41586 24-468)
T1 sequence: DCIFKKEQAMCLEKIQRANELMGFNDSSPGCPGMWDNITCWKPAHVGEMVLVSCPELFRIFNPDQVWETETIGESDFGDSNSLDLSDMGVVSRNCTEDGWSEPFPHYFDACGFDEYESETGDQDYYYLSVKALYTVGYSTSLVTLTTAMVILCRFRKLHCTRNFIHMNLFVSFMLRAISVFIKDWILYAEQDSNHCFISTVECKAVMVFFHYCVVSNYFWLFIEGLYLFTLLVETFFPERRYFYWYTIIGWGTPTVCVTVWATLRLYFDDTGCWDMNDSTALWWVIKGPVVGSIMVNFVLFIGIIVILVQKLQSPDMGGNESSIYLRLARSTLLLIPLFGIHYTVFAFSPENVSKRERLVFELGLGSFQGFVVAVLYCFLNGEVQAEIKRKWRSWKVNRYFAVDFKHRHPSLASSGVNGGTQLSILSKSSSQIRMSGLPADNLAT

B1: iPS:454889 (bispecific antibody, human IgG1, kappa, lambda, N297G)
light 1: QSVLTQPPSVSAAPGQKVTISCSGSSSNIGNNYVSWYQQLPGTAPKLLIYDNNKRPSGIPDRFSGSKSGTSTTLGITGLQTGDEADYYCGTWDSRLSAVVFGGGTKLTVLGQPKAAPSVTLFPPSSEELQANKATLVCLISDFYPGAVTVAWKADSSPVKAGVETTTPSKQSNNKYAAKSYLSLTPEQWKSHRSYSCQVTHEGSTVEKTVAPTECS
heavy 1: QVQLVESGGGVVQPGRSLRLSCAASGFTFSSFGMHWVRQAPGKGLEWVAVISFDGSIKYSVDSVKGRFTISRDNSKNTLFLQMNSLRAEDTAVYYCARDRLNYYRSFGYYGYHYYGMAVWGQGTTVTVSSASTKGPSVFPLAPSSKSTSGGTAALGCLVKDYFPEPVTVSWNSGALTSGVHTFPAVLQSSGLYSLESVVTVPSSSLGTQTYICNVNHKPSNTKVDKKVEPKSCDKTHTCPPCPAPELLGGPSVFLFPPKPKDTLMISRTPEVTCVVVDVSHEDPEVKFNWYVDGVEVHNAKTKPCEEQYGSTYRCVSVLTVLHQDWLNGKEYKCKVSNKALPAPIEKTISKAKGQPREPQVYTLPPSRKKMTKNQVSLTCLVKGFYPSDIAVEWESNGQPENNYKTTPPVLKSDGSFFLYSKLTVDKSRWQQGNVFSCSVMHEALHNHYTQKSLSLSPGK
light 2: EIVLTQSPATLSLSPGERATLSCRASKSVGRSLHWYQQKPGQAPRLLIKYASQSLSGIPARFSGSGSGTDFTLTISSLEPEDFAVYYCHQSSRLPFTFGPGTKVDIKRTVAAPSVFIFPPSDEQLKSGTASVVCLLNNFYPREAKVQWKVDNALQSGNSQESVTEQDSKDSTYSLESTLTLSKADYEKHKVYACEVTHQGLSSPVTKSFNRGEC
heavy 2: not shown
B2: iPS:454907 (bispecific antibody, human IgG1, kappa, lambda, N297G)
light 1: B1 light 1
heavy 1: B1 heavy 1
light 2: B1 light 2 with R31W
heavy 2: not shown
B3: iPS:454905 (bispecific antibody, human IgG1, kappa, lambda, N297G)
light 1: B1 light 1
heavy 1: B1 heavy 1
light 2: B1 light 2 with R31W
heavy 2: not shown
B4: iPS:454917 (bispecific antibody, human IgG1, kappa, lambda, N297G)
light 1: B1 light 1
heavy 1: B1 heavy 1
light 2: B1 light 2 with R31W
heavy 2: not shown
B5: iPS:454901 (bispecific antibody, human IgG1, kappa, lambda, N297G)
light 1: B1 light 1
heavy 1: B1 heavy 1
light 2: B1 light 2 with S28A, R31W
heavy 2: not shown
B6: iPS:454891 (bispecific antibody, human IgG1, kappa, lambda, N297G)
light 1: B1 light 1
heavy 1: B1 heavy 1
light 2: B1 light 2 with K27Q
heavy 2: not shown
B7: iPS:454893 (bispecific antibody, human IgG1, kappa, lambda, N297G)
light 1: B1 light 1
heavy 1: B1 heavy 1
light 2: B1 light 2 with K27Q
heavy 2: not shown
B8: iPS:454557 (5601) (bispecific antibody, human IgG1, kappa, lambda, N297G)
light 1: B1 light 1 with S26Y, N31R, N32Y, Y33S, T72A
heavy 1: B1 heavy 1 with R105E, F107S, G111H, H113K, K370E
light 2: B1 light 2
heavy 2: not shown
B9: iPS:571015 (5603) (bispecific antibody, human IgG1, kappa, lambda, N297G)
light 1: B1 light 1 with S26Y, N31R, N32Y, Y33S, T72A
heavy 1: B1 heavy 1 with R105E, F107S, G111H, H113K, K369E
light 2: B1 light 2
heavy 2: not shown
B10: iPS:454919 (bispecific antibody, human IgG1, kappa, lambda, N297G)
light 1: B1 light 1
heavy 1: B1 heavy 1
light 2: B1 light 2 with R31Y
heavy 2: not shown
B11: iPS:454915 (bispecific antibody, human IgG1, kappa, lambda, N297G)
light 1: B1 light 1
heavy 1: B1 heavy 1
light 2: B1 light 2 with R31W
heavy 2: not shown
B12: iPS:454895 (bispecific antibody, human IgG1, kappa, lambda, N297G)
light 1: B1 light 1
heavy 1: B1 heavy 1
light 2: B1 light 2 with K27Q
heavy 2: not shown
B13: iPS:454565 (5606) (bispecific antibody, human IgG1, kappa, lambda, N297G)
light 1: B1 light 1 with S26Y, N31R, N32Y, Y33S, T72A
heavy 1: B1 heavy 1 with R105E, F107S, G111H, H113K, K370E
light 2: B1 light 2
heavy 2: not shown
B14: iPS:454897 (bispecific antibody, human IgG1, kappa, lambda, N297G)
light 1: B1 light 1
heavy 1: B1 heavy 1
light 2: B1 light 2
heavy 2: not shown
B15: iPS:454903 (bispecific antibody, human IgG1, kappa, lambda, N297G)
light 1: B1 light 1
heavy 1: B1 heavy 1
light 2: B1 light 2 with R31W
heavy 2: not shown
B16: iPS:454911 (bispecific antibody, human IgG1, kappa, lambda, N297G)
light 1: B1 light 1
heavy 1: B1 heavy 1
light 2: B1 light 2 with R31W
heavy 2: not shown
B17: iPS:454899 (bispecific antibody, human IgG1, kappa, lambda, N297G)
light 1: B1 light 1
heavy 1: B1 heavy 1
light 2: B1 light 2
heavy 2: not shown
B18: iPS:571009 (5602) (bispecific antibody, human IgG1, kappa, lambda, N297G)
light 1: B1 light 1 with S26Y, N31R, N32Y, Y33S, T72A
heavy 1: B1 heavy 1 with R105E, F107S, G111H, H113K, K370E
light 2: B1 light 2
heavy 2: not shown
B19: iPS:454909 (bispecific antibody, human IgG1, kappa, lambda, N297G)
light 1: B1 light 1
heavy 1: B1 heavy 1
light 2: B1 light 2 with R31W
heavy 2: not shown
B20: iPS:454913 (bispecific antibody, human IgG1, kappa, lambda, N297G)
light 1: B1 light 1
heavy 1: B1 heavy 1
light 2: B1 light 2 with R31W
heavy 2: not shown

Positions count from the first letter of the chain named.

For the first assay, the target named is human CGRP receptor (human, UniProt Q16602 23-461; O60894 27-148). The assay is described as follows: cell-based or functional assay.
human CGRP receptor, sequence (Q16602 23-461 limits assumed, chain 1 of 2): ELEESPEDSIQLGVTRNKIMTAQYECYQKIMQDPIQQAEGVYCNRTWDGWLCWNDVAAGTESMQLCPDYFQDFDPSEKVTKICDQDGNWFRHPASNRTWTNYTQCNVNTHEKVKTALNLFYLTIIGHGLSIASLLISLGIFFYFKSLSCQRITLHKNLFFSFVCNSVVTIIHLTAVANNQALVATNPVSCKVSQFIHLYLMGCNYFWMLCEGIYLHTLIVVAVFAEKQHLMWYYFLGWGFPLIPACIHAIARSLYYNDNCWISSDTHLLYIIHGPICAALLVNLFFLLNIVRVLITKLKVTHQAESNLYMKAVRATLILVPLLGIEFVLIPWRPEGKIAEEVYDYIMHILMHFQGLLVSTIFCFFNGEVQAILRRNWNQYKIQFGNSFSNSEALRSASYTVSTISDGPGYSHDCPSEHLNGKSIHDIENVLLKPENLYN
human CGRP receptor, sequence (O60894 27-148 limits assumed, chain 2 of 2): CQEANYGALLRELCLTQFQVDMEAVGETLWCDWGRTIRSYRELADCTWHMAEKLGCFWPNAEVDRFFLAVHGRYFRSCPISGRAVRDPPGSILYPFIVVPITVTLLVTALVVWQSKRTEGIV
Regarding B1, the “Fold-improvement over 4E4 Ab” value worked out at 0.5 fold and 1.1 nM corresponded to half-maximal inhibition (IC50).

B2: the “Fold-improvement over 4E4 Ab” value amounted to 0.4 fold and the “IC50” value turned out to be 1.63 nM.

On to B3, for which the “Fold-improvement over 4E4 Ab” value turned out to be 0.5 fold and the half-maximal inhibitory concentration (IC50) turned out to be 1.13 nM.

As to B4, the “Fold-improvement over 4E4 Ab” value was 0.4 fold and the “IC50” value stood at 1.34 nM.

As to B5, the “Fold-improvement over 4E4 Ab” value was found to be 0.6 fold and half-maximal inhibition (IC50) was put at 1.01 nM.

B6: the “Fold-improvement over 4E4 Ab” value came to 0.6 fold and the “IC50” value came to 0.9 nM.

Take B7: the “Fold-improvement over 4E4 Ab” value turned out to be 0.4 fold and the “IC50” value worked out at 1.35 nM.

For the molecule B8, the “Fold-improvement over 4E4 Ab” value came to 1.5 fold and half-maximal inhibition (IC50) was put at 0.39 nM.

As to B9, the “Fold-improvement over 4E4 Ab” value came out at 1.2 fold and half-maximal inhibition (IC50) was put at 0.47 nM.

Turning to B10, the “Fold-improvement over 4E4 Ab” value is 0.4 fold and the “IC50” value turned out to be 1.4 nM.

Turning to B11, the “Fold-improvement over 4E4 Ab” value is 0.4 fold and the half-maximal inhibitory concentration (IC50) was determined as 1.25 nM.

Regarding B12, the “Fold-improvement over 4E4 Ab” value came out at 0.4 fold and the concentration for half-maximal inhibition (IC50) turned out to be 1.41 nM.

Take B13: the “Fold-improvement over 4E4 Ab” value is 0.8 fold and it took 0.66 nM to reach half-maximal inhibition (IC50).

Regarding B14, the “Fold-improvement over 4E4 Ab” value came to 0.5 fold and the “IC50” value worked out at 1.14 nM.

Take B15: the “Fold-improvement over 4E4 Ab” value came to 0.5 fold and the “IC50” value was determined as 1.16 nM.

On to B16, for which the “Fold-improvement over 4E4 Ab” value was determined as 0.3 fold and the midpoint of inhibition, the IC50, lay at 1.98 nM.

Take B17: the “Fold-improvement over 4E4 Ab” value turned out to be 0.6 fold and the “IC50” value amounted to 1.04 nM.

As for B18, the “Fold-improvement over 4E4 Ab” value is 1.3 fold and the half-maximal inhibitory concentration (IC50) was determined as 0.43 nM.

Consider B19, for which the “Fold-improvement over 4E4 Ab” value worked out at 0.4 fold and it took 1.49 nM to reach half-maximal inhibition (IC50).

Take B20: the “Fold-improvement over 4E4 Ab” value came out at 0.3 fold and 2.11 nM corresponded to half-maximal inhibition (IC50).

A further assay addresses T1, human PAC1 receptor. The assay is described as follows: cell-based or functional assay.
Take B1: the “Fold-improvement over 29G4v22 Ab” value was found to be 4.9 fold and the “IC50” value turned out to be 1.31 nM.

Turning to B2, the “Fold-improvement over 29G4v22 Ab” value amounted to 5.4 fold and the “IC50” value was 1.37 nM.

In the case of B3, the “Fold-improvement over 29G4v22 Ab” value came out at 9.2 fold and the 50% inhibitory concentration (IC50) was 0.79 nM.

B4: the “Fold-improvement over 29G4v22 Ab” value was 11.4 fold and the concentration for half-maximal inhibition (IC50) was 0.61 nM.

As for B5, the “Fold-improvement over 29G4v22 Ab” value came out at 10.9 fold and the “IC50” value amounted to 0.67 nM.

B6: the “Fold-improvement over 29G4v22 Ab” value was determined as 9.5 fold and half-maximal inhibition (IC50) required 0.68 nM.

As to B7, the “Fold-improvement over 29G4v22 Ab” value stood at 7.4 fold and inhibition was half-maximal at 0.87 nM (IC50).

On to B8, for which the “Fold-improvement over 29G4v22 Ab” value came out at 6.7 fold and the 50% inhibitory concentration (IC50) was determined as 0.61 nM.

Take B9: the “Fold-improvement over 29G4v22 Ab” value was found to be 5.5 fold and the half-inhibitory concentration (IC50) is 0.74 nM.

As for B10, the “Fold-improvement over 29G4v22 Ab” value worked out at 9.8 fold and the “IC50” value came to 0.7 nM.

B11: the “Fold-improvement over 29G4v22 Ab” value was determined as 10.5 fold and 0.66 nM corresponded to half-maximal inhibition (IC50).

As to B12, the “Fold-improvement over 29G4v22 Ab” value came out at 9.4 fold and the “IC50” value was determined as 0.69 nM.

For the molecule B13, the “Fold-improvement over 29G4v22 Ab” value amounted to 5.9 fold and the half-maximal inhibitory concentration (IC50) came to 0.69 nM.

With B14, the “Fold-improvement over 29G4v22 Ab” value is 6.2 fold and the half-inhibitory concentration (IC50) is 1.04 nM.

With B15, the “Fold-improvement over 29G4v22 Ab” value turned out to be 10.2 fold and the “IC50” value came to 0.72 nM.

As for B16, the “Fold-improvement over 29G4v22 Ab” value stood at 9.1 fold and the “IC50” value stood at 0.81 nM.

As to B17, the “Fold-improvement over 29G4v22 Ab” value was determined as 5.2 fold and the “IC50” value is 1.41 nM.

Take B18: the “Fold-improvement over 29G4v22 Ab” value stood at 7.2 fold and the “IC50” value turned out to be 0.57 nM.

For B19, the “Fold-improvement over 29G4v22 Ab” value was 9.5 fold and the midpoint of inhibition, the IC50, lay at 0.77 nM.

On to B20, for which the “Fold-improvement over 29G4v22 Ab” value came out at 5.2 fold and the “IC50” value was found to be 1.33 nM.

The record behind these values is patent US20220363770A1 (Amgen, published 2022).
